Data as given in IntAct's records for PubMed 27978489.

B1: T-cell immunoreceptor with Ig and ITIM domains (Homo sapiens), Q495A1 (parent)
chain: MRWCLLLIWAQGLRQAPLASGMMTGTIETTGNISAEKGGSIILQCHLSSTTAQVTQVNWEQQDQLLAICNADLGWHISPSFKDRVAPGPGLGLTLQSLTVNDTGEYFCIYHTYPDGTYTGRIFLEVLESSVAEHGARFQIPLLGAMAATLVVICTAVIVVVALTRKKKALRIHSVEGDLRRKSAGQEEWSPSAPSPPGSCVQAEAAPAGLCGEQRGEDCAELHDYFNVLSYRSLGNCSFFTETG

Variants of: B1
Details: with nect2_human NECTIN2, Q92692
nect2_human NECTIN2, Q92692, sequence (Q92692 whole entry): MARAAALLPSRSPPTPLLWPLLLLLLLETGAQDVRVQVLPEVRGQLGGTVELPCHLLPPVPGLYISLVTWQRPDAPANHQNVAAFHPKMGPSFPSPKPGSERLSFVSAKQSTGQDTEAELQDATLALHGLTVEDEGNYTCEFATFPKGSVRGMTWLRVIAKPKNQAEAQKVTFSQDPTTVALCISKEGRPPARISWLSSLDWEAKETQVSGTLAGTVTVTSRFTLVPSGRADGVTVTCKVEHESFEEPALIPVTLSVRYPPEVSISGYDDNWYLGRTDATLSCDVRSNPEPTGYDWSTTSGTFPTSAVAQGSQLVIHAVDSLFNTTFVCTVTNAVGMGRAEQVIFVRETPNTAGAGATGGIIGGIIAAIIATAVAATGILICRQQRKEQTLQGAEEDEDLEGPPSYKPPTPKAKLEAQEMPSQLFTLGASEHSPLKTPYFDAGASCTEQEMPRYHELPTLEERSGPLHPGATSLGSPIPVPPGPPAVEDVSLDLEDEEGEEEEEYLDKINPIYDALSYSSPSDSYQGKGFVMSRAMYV

effect of a mutation on the interaction | Variant
decreasing interaction strength | MRWCLLLIWAQGLRQAPLASGMMTGTIETTGNISAEKGGSIILQCHLSSTTAQVTQVNWEQQDQLLAICNADLGWHISPSFKDRVAPGPGLGLTLQSLTVNDTGEYFCIYHTAPDGTYTGRIFLEVLESSVAEHGARFQIPLLGAMAATLVVICTAVIVVVALTRKKKALRIHSVEGDLRRKSAGQEEWSPSAPSPPGSCVQAEAAPAGLCGEQRGEDCAELHDYFNVLSYRSLGNCSFFTETG [Y113A]
decreasing interaction strength | MRWCLLLIWAQGLRQAPLASGMMTGTIETTGNISAEKGGSIILQCHLSSTTAQVTQVNWEQQDQLLAICNADLGWHISPSFKDRVAPGPGLGLTLQSLTVNDTGEYFCIYHTYADGTYTGRIFLEVLESSVAEHGARFQIPLLGAMAATLVVICTAVIVVVALTRKKKALRIHSVEGDLRRKSAGQEEWSPSAPSPPGSCVQAEAAPAGLCGEQRGEDCAELHDYFNVLSYRSLGNCSFFTETG [P114A]
decreasing interaction strength | MRWCLLLIWAQGLRQAPLASGMMTGTIETTGNISAEKGGSIILQCHLSSTTAQVTQVNWEQQDQLLAICNADLGWHISPSFKDRVAPGPGLGLTLQSLTVNDTGEYFCIYHAYPDGTYTGRIFLEVLESSVAEHGARFQIPLLGAMAATLVVICTAVIVVVALTRKKKALRIHSVEGDLRRKSAGQEEWSPSAPSPPGSCVQAEAAPAGLCGEQRGEDCAELHDYFNVLSYRSLGNCSFFTETG [T112A]
